The assay deals with His-tagged MUC1 cytoplasmic domain (His-MUC1-CD) (human). Nature of the assay: SPR (BIAcore), His-MUC1-CD immobilized on the sensor chip, peptide injected at 10 µM, 1:1 binding model. Background: SPR reads the build-up and loss of mass on a sensor chip optically.

This passage reports Kd results from patent US20110251246A1.

As a reminder, the Kd is the equilibrium constant for the complex coming apart. The low end stands for a tighter complex, the high end for a looser complex. Take MUC1/CQC peptide: the Kd was found to be 30 nM.
